# Data from paper PMC5643395.
# Test system: histone octamer WT
# Assay: ensemble FRET (microplate), salt-induced disassembly
# Details: Reconstitution by dialysis from 2 M to 5 mM NaCl in 10 mM Tris-HCl, 0.1 mM EDTA; FRET over NaCl titration (FRET buffer and temperature not in the material) …
substance,measurement,value
Widom 601 170 bp,K half,800 mM NaCl
